Results reported in patent US20200055920A1 (published 2020).
Each block holds one substance with its values, some of them ahead of it.

What was measured:
Test in all cases: Biacore SPR; receptor-Fc captured by anti-Fc antibody, ligand injected
BMP2 = BMP2 (UniProt P12643 283-396)
BMP6 = target: T1, BMP6 (UniProt P22004 382-513, limits assumed)
T1 sequence (looked up): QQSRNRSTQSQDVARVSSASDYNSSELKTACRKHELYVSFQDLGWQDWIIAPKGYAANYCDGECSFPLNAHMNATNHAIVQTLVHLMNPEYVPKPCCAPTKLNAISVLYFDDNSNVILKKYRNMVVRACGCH

BMP7 = target: T2, BMP7 (UniProt P18075 293-431)
T2 construct: also called osteogenic protein-1; OP-1
T2 sequence (looked up): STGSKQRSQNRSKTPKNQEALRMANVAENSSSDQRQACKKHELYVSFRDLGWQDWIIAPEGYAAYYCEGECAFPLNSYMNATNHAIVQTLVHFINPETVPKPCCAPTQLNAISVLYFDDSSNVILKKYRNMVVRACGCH

BMP10 = target: T3, BMP10 (UniProt O95393 317-424)
T3 sequence (looked up): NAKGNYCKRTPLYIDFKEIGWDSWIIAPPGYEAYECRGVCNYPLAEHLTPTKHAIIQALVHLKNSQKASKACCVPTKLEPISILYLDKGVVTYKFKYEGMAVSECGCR

Activin B = target: T4, Activin B (UniProt P09529 293-407)
T4 construct: also called βBβB
T4 sequence (looked up): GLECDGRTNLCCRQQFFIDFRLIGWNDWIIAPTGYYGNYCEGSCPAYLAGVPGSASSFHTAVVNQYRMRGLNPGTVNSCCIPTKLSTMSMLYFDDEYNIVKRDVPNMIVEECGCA
Protocol: (§1) Ligands were injected and allowed to flow over the captured receptor protein.

BMP9 = target: T5, BMP9 (UniProt Q9UK05 320-429)
T5 construct: also called GDF2
T5 sequence (looked up): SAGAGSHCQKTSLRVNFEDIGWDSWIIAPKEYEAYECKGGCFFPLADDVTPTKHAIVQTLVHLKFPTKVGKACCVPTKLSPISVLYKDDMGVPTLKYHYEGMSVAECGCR
Protocol: as §1

GDF6 = target: T6, GDF6 (UniProt Q6KF10 336-455, limits assumed)
T6 construct: also called BMP13
T6 sequence (looked up): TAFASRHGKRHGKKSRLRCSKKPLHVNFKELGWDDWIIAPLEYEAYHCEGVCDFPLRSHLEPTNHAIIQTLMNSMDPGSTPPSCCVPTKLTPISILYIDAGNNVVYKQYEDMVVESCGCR
Protocol: as §1

BMP15 = target: T7, BMP15 (UniProt O95972 268-392)
T7 construct: also called GDF9b
T7 sequence (looked up): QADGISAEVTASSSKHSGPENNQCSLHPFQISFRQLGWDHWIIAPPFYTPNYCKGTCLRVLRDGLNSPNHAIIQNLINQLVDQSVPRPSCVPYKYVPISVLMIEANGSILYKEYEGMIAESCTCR
Protocol: A Biacore™-based binding assay was used to compare ligand binding selectivity of the single-arm BMPRII-Fc heterodimeric complex described above with that of an BMPRII-Fc homodimeric complex. The single-arm BMPRII-Fc and homodimeric BMPRII-Fc were independently captured onto the system using an anti-Fc antibody. Ligands were injected and allowed to flow over the captured receptor protein.

Activin A = target: T8, Activin A (UniProt P08476 311-426)
T8 construct: also called βAβA
T8 sequence (looked up): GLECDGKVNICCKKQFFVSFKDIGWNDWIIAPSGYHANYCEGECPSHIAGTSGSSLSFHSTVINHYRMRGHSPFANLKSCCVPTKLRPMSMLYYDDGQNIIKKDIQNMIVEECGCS
Protocol: as §1

GDF3 = target: T9, GDF3 (UniProt Q9NR23 251-364)
T9 construct: also called VGR2
T9 sequence (looked up): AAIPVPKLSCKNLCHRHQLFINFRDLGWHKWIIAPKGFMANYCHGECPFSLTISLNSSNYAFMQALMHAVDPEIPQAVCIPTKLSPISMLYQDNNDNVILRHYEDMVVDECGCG
Protocol: as §1

GDF8 = target: T10, GDF8 (UniProt O14793 267-375)
T10 construct: also called myostatin; growth and differentiation factor-8
T10 sequence (looked up): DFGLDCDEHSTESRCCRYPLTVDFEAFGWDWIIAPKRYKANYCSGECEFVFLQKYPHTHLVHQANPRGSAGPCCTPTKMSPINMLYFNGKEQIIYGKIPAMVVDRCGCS
Protocol: as §1

GDF11 = target: T11, GDF11 (UniProt O95390 299-407)
T11 construct: also called BMP11
T11 sequence (looked up): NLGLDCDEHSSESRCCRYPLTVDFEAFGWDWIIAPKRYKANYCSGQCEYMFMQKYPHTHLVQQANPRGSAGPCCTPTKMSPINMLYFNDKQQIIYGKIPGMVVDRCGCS
Protocol: as §1

BMP4 = target: T12, BMP4 (UniProt P12644 293-408)
T12 sequence (looked up): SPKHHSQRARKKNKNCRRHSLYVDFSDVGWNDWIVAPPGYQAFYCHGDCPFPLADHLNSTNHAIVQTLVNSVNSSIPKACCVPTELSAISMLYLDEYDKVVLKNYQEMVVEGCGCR

BMP5 = target: T13, BMP5 (UniProt P22003 317-454, limits assumed)
T13 sequence (looked up): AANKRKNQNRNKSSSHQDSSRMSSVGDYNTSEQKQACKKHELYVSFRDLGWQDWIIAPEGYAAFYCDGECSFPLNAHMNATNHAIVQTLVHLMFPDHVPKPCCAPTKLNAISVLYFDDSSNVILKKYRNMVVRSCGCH

GDF7 = target: T14, GDF7 (UniProt Q7Z4P5 322-450, limits assumed)
T14 construct: also called BMP12
T14 sequence (looked up): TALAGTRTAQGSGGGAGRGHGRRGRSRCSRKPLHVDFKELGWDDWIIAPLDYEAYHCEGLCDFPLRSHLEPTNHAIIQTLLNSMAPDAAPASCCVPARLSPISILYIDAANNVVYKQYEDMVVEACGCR

GDF5 = target: T15, GDF5 (UniProt P43026 382-501, limits assumed)
T15 construct: also called BMP14
T15 sequence (looked up): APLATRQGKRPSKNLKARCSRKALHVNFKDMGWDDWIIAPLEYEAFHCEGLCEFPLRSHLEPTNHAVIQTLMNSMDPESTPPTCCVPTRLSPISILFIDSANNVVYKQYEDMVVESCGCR
Protocol: as §1

Chain of BMP2 (P12643 283-396 limits assumed): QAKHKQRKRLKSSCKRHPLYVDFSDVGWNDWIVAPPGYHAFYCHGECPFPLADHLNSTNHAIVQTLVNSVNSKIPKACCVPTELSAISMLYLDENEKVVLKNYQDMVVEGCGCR

Kd (BMP2): > 2000 nM
Kd (BMP6): > 8.9 nM
Kd (BMP7): > 38 nM
Kd (BMP10): 0.098 nM
koff (BMP10): 0.0025 s⁻¹
kon (BMP10): 2.6e+07 M⁻¹ s⁻¹
Kd (Activin B): 3.8 nM
koff (Activin B): 0.075 s⁻¹
kon (Activin B): 2e+07 M⁻¹ s⁻¹
Kd (BMP9): 2.1 nM
koff (BMP9): 0.026 s⁻¹
kon (BMP9): 1.2e+07 M⁻¹ s⁻¹
Kd (GDF6): > 88 nM
Kd (BMP15): 0.28 nM
koff (BMP15): 0.0028 s⁻¹
kon (BMP15): 9.9e+06 M⁻¹ s⁻¹
Substance: BMPRII-Fc homodimer (Fc fusion)

Kd (BMP6): 0.21 nM
koff (BMP6): 0.0068 s⁻¹
kon (BMP6): 3.2e+07 M⁻¹ s⁻¹
Kd (BMP10): 0.011 nM
koff (BMP10): 0.00026 s⁻¹
kon (BMP10): 2.3e+07 M⁻¹ s⁻¹
Kd (Activin A): 0.019 nM
koff (Activin A): 0.00023 s⁻¹
kon (Activin A): 1.2e+07 M⁻¹ s⁻¹
Kd (Activin B): 0.02 nM
koff (Activin B): 0.0001 s⁻¹
kon (Activin B): 5.1e+06 M⁻¹ s⁻¹
Kd (BMP9): 0.078 nM
koff (BMP9): 0.0011 s⁻¹
kon (BMP9): 1.4e+07 M⁻¹ s⁻¹
Kd (GDF3): 1.5 nM
koff (GDF3): 0.0022 s⁻¹
kon (GDF3): 1.4e+06 M⁻¹ s⁻¹
Kd (GDF8): 0.28 nM
koff (GDF8): 0.00023 s⁻¹
kon (GDF8): 830000 M⁻¹ s⁻¹
Kd (GDF11): 0.002 nM
koff (GDF11): 0.00011 s⁻¹
kon (GDF11): 5e+07 M⁻¹ s⁻¹
Substance: ActRIIB-Fc homodimer (Fc fusion)

Kd (BMP2): 0.13 nM
koff (BMP2): 8.9e-05 s⁻¹
kon (BMP2): 680000 M⁻¹ s⁻¹
Kd (BMP4): 0.178 nM
koff (BMP4): 5.3e-05 s⁻¹
kon (BMP4): 300000 M⁻¹ s⁻¹
Kd (BMP5): 70 nM
koff (BMP5): 0.002 s⁻¹
kon (BMP5): 29000 M⁻¹ s⁻¹
Kd (BMP6): 35 nM
koff (BMP6): 0.0049 s⁻¹
kon (BMP6): 140000 M⁻¹ s⁻¹
Kd (BMP7): 15 nM
koff (BMP7): 0.018 s⁻¹
kon (BMP7): 1.2e+06 M⁻¹ s⁻¹
Kd (GDF7): 12 nM
koff (GDF7): 0.0027 s⁻¹
kon (GDF7): 220000 M⁻¹ s⁻¹
Kd (GDF5): 22 nM
koff (GDF5): 0.011 s⁻¹
kon (GDF5): 480000 M⁻¹ s⁻¹
Kd (GDF6): 40 nM
koff (GDF6): 0.0013 s⁻¹
kon (GDF6): 34000 M⁻¹ s⁻¹
Substance: ALK3-Fc homodimer (Fc fusion)
